The source of these data is the RNAGym collection of RNA variant scans (doi:10.1073/pnas.2313332121).

First the molecules themselves.
B1: TPR t1 (parent)
chain: GACCAAUCUGCCCUCAGAGCUCGAGAACAUCUUCGGAUGCAGAGGAGGCAGGCUUCGGUGGCGCGAUAGCGCCAACGUCCUCAACCUCCAAUGCAUCCCACCACAUGAUGAUGCCUGAAGAGCCUUGGUUUUUUG

The variants in the data set derive from B1. The data set can be described thus: polymerase ribozyme fitness, log enrichment relative to wild type (log ratio); higher = more active; in vitro selection for triplet polymerase activity. In a few lines:
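Input and output libraries were sequenced on Illumina after a single in vitro selection round, run in triplicate on PCR-built, transcribed mutant libraries of each subunit of a heterodimeric triplet polymerase ribozyme. Selection annealed libraries to a biotinylated primer, the partner subunit and triplets, incubated them frozen at −7 °C, then gel-excised extended constructs for streptavidin-bead capture and RT-PCR. Genotypes with ≥10 input reads and ≥1 read per output were kept. Fitness is the logarithm, taken in base 2, of genotype enrichment divided by wild-type enrichment, using inverse-variance-weighted replicate averages.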
C49A G63U G65C G120C: the “polymerase ribozyme fitness (log ratio)” value was -6.43.

For C49U A50G, the “polymerase ribozyme fitness (log ratio)” value was -1.68.

As for C49A G51C A100C U132A, the “polymerase ribozyme fitness (log ratio)” value is -5.52.

For C49G U129C, the “polymerase ribozyme fitness (log ratio)” value was -0.4.

In the case of C49U C72U C89G, the “polymerase ribozyme fitness (log ratio)” value is -1.87.

For C49A C79G A103G U112G C114U U116C, the “polymerase ribozyme fitness (log ratio)” value was -7.2.

C49A C85A G93C U106A: the “polymerase ribozyme fitness (log ratio)” value was -1.01.

C49U C89U A105U: the “polymerase ribozyme fitness (log ratio)” value was -4.2.

On to C49U G128A, for which the “polymerase ribozyme fitness (log ratio)” value is -2.63.

With C49A U87C, the “polymerase ribozyme fitness (log ratio)” value was determined as 0.179.

Take C49A U78A: the “polymerase ribozyme fitness (log ratio)” value is -1.14.

As for C49A C72G, the “polymerase ribozyme fitness (log ratio)” value was -0.887.

For C49A A91G, the “polymerase ribozyme fitness (log ratio)” value was -1.63.

In the case of C49G U55C A95C C98U, the “polymerase ribozyme fitness (log ratio)” value was -3.54.

For the variant C49A C53A C86A U112G G128A, the “polymerase ribozyme fitness (log ratio)” value is -3.85.

C49U U87A: the “polymerase ribozyme fitness (log ratio)” value is -0.416.

As for C49G U130A, the “polymerase ribozyme fitness (log ratio)” value was -1.8.

Consider C49U A50C A111G, for which the “polymerase ribozyme fitness (log ratio)” value is 0.0314.

Take C49U U54G U59A C79U C101A G113U: the “polymerase ribozyme fitness (log ratio)” value is -5.96.

In the case of C49G U106G U116C, the “polymerase ribozyme fitness (log ratio)” value was -4.97.

With C49A G52C G60A U112G G127C, the “polymerase ribozyme fitness (log ratio)” value is -2.8.

In the case of C49G A83U, the “polymerase ribozyme fitness (log ratio)” value is -0.66.

Take C49G G69C: the “polymerase ribozyme fitness (log ratio)” value is -1.79.

Turning to C49U C53U C79A G120A G128A, the “polymerase ribozyme fitness (log ratio)” value was -3.2.

As for C49U C72U, the “polymerase ribozyme fitness (log ratio)” value was -0.879.

Take C49U A84U C88A: the “polymerase ribozyme fitness (log ratio)” value was -1.82.

Regarding C49G C79A, the “polymerase ribozyme fitness (log ratio)” value was -3.75.

For C49A G60C G127A U131A, the “polymerase ribozyme fitness (log ratio)” value was -3.76.

For the variant C49U C53U, the “polymerase ribozyme fitness (log ratio)” value is -0.552.

As to A50C C72A, the “polymerase ribozyme fitness (log ratio)” value came out at 0.00514.

Turning to C49U A90G, the “polymerase ribozyme fitness (log ratio)” value came to 0.52.

C49A A66C U87A: the “polymerase ribozyme fitness (log ratio)” value is -1.04.

With C49U C53U C70U C79U, the “polymerase ribozyme fitness (log ratio)” value is -4.07.

For the variant C49A U106G, the “polymerase ribozyme fitness (log ratio)” value is -2.41.

In the case of C49A U106A, the “polymerase ribozyme fitness (log ratio)” value was -0.478.

For the variant C49U C62G, the “polymerase ribozyme fitness (log ratio)” value is -4.14.

As for C49A C73A G93U, the “polymerase ribozyme fitness (log ratio)” value was -1.28.

Turning to A50C C76G C82A G120C, the “polymerase ribozyme fitness (log ratio)” value is -0.0695.

Consider C49U A66G G120C C123G, for which the “polymerase ribozyme fitness (log ratio)” value is -1.48.

Take C49G C88U C94U: the “polymerase ribozyme fitness (log ratio)” value was -0.799.

As for C49G G69U C115U, the “polymerase ribozyme fitness (log ratio)” value is 0.956.

Consider C49A C102A A121U G122U U133C, for which the “polymerase ribozyme fitness (log ratio)” value was -0.655.

As for G48U U92C G120A G127C U134G, the “polymerase ribozyme fitness (log ratio)” value is -1.91.

For A50C C94U, the “polymerase ribozyme fitness (log ratio)” value is -0.435.

In the case of A50C C73A U78G A90G, the “polymerase ribozyme fitness (log ratio)” value is -1.98.

On to C49U C104A, for which the “polymerase ribozyme fitness (log ratio)” value is -2.12.

C49U A118U: the “polymerase ribozyme fitness (log ratio)” value was -0.365.

As for C49U G63C, the “polymerase ribozyme fitness (log ratio)” value was -0.762.

With C49U G77U C123G, the “polymerase ribozyme fitness (log ratio)” value amounted to 0.718.

For the variant C49A U92G G117U C123U, the “polymerase ribozyme fitness (log ratio)” value is -6.98.

In the case of C49A G71U, the “polymerase ribozyme fitness (log ratio)” value was -0.754.

As to C49G C89A, the “polymerase ribozyme fitness (log ratio)” value was -2.67.

For the variant C49U A50U C82U, the “polymerase ribozyme fitness (log ratio)” value was -1.71.

C49G C80U: the “polymerase ribozyme fitness (log ratio)” value is -3.42.

Take C49U G69U G117U: the “polymerase ribozyme fitness (log ratio)” value is -2.25.

On to C49U C53A C104U, for which the “polymerase ribozyme fitness (log ratio)” value was -0.231.

On to C49A U131C, for which the “polymerase ribozyme fitness (log ratio)” value was -0.0361.

As for C49A C73U C88U C94U C123U U132G G135U, the “polymerase ribozyme fitness (log ratio)” value was -1.74.

Take C49A A103C: the “polymerase ribozyme fitness (log ratio)” value was -5.44.

C49G G117C: the “polymerase ribozyme fitness (log ratio)” value was -4.72.

For C49G G117U, the “polymerase ribozyme fitness (log ratio)” value is -2.86.

In the case of C49A G69U U81A C89A G93U C115G C123G, the “polymerase ribozyme fitness (log ratio)” value is -2.93.

Consider C49A U96C G120U, for which the “polymerase ribozyme fitness (log ratio)” value was -0.575.

Regarding C49U U81C A95G C102G G110U G135U, the “polymerase ribozyme fitness (log ratio)” value was -7.51.

For the variant C49G U109A U112A, the “polymerase ribozyme fitness (log ratio)” value was -5.85.

For C49U C70G C102A A111C U116A G120C, the “polymerase ribozyme fitness (log ratio)” value was -6.27.

As for C49G C70U A84G U126G U129G G135C, the “polymerase ribozyme fitness (log ratio)” value is -4.25.

Take C49A C101G C115A G120A: the “polymerase ribozyme fitness (log ratio)” value was -2.2.

For C49U G93A, the “polymerase ribozyme fitness (log ratio)” value was -1.33.

Regarding A50C G52U C94A G117A, the “polymerase ribozyme fitness (log ratio)” value was -6.56.

With A50C G61U C79A, the “polymerase ribozyme fitness (log ratio)” value was -2.63.

For C49A U55C C88G C94U C124U, the “polymerase ribozyme fitness (log ratio)” value came to 0.14.

Turning to C49U U106G, the “polymerase ribozyme fitness (log ratio)” value is -2.35.

Regarding C49U C73U, the “polymerase ribozyme fitness (log ratio)” value is -0.609.

Consider C49A U112A G127C, for which the “polymerase ribozyme fitness (log ratio)” value was -0.179.

As for C49A C64U U129C U133C, the “polymerase ribozyme fitness (log ratio)” value was -0.175.

Regarding C49U G52U G61A G120A, the “polymerase ribozyme fitness (log ratio)” value was -0.105.

As for C49U C86U C97U G117C C124A, the “polymerase ribozyme fitness (log ratio)” value is -4.42.

Regarding C49G G63C C80U U112A C124U, the “polymerase ribozyme fitness (log ratio)” value is -5.99.

As to C49G G71C A84U G110C, the “polymerase ribozyme fitness (log ratio)” value is -6.35.

A50C C62A: the “polymerase ribozyme fitness (log ratio)” value is -2.99.

With A50C C62G, the “polymerase ribozyme fitness (log ratio)” value is -2.66.

Consider C49A C56A G63A A75U A83C G113U C123G G127A, for which the “polymerase ribozyme fitness (log ratio)” value was -5.69.
